Variants at the floor of the assay were thinned out.
B1: TPR 5TU (parent)
chain: GGAUCUUCUCGAUCUAACAAAAAAGACAAAUCUGCCACAAAGCUUGAGAGCAUCUUCGGAUGCAGAGGCGGCAGCCUUCGGUGGCGCGAUAGCGCCAACGUUCUCAACUAUGACACGCAAAACGCGUGCUCCGUUGAAUGGAGUUUAUCAUG

Variants of: B1
Assay: polymerase ribozyme fitness, log enrichment relative to wild type (log ratio); higher = more active; in vitro selection for triplet polymerase activity
Method in brief: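 A single round of triplicate in vitro selection, including frozen incubation at −7 °C, was applied to PCR-built, transcribed mutant libraries of each subunit of a heterodimeric triplet polymerase ribozyme. Illumina sequencing of input and output libraries retained genotypes with ≥10 input reads and ≥1 read per output. Fitness is the base-2 logarithm of genotype enrichment divided by wild-type enrichment, from inverse-variance-weighted replicate averages.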

| Variant | polymerase ribozyme fitness (log ratio) |
| --- | --- |
| A47C G58C A64U U104C A107G | ≤ -4.2 |
| A47G U55G | 0.325 |
| A47C G126A | 0.0505 |
| A47C G59A | 0.309 |
| A47C G62A G70A U82A C85U G86A G152C | ≤ -4.2 |
| A47C U127C | -1.6 |
| G46C G86A | -1.59 |
| A47C C95U C96U C118U C131U | -1.83 |
| A47G A91G A97G G112C | ≤ -4.2 |
| A47C C95U C116A | -0.555 |
| A47C U56A C87A C93G A121U C132G G143A U144C | ≤ -4.2 |
| A47C G48A G124U | -3.59 |
| A47G A49U C103G | ≤ -4.2 |
| A47C C57U G67C C69A A91U C149U | ≤ -4.2 |
| A47C C63U C79A G80A G86C U102C | ≤ -4.2 |
| A47C G83U | -1.01 |
| G46U G84C C87G A150G | ≤ -4.2 |
| A47G C51U C87U | -0.414 |
| A47C C57A G84C G86U U146C C149U | ≤ -4.2 |
| G46U A120U | -0.29 |
| G46U G59A A60C | -2.54 |
| A47G G83C U134A G140U | -4.17 |
| A47G G58C G65A G141U | -1.24 |
| A47G G140A | -3.51 |

| Variant | polymerase ribozyme fitness (log ratio) |
| --- | --- |
| A47C C85A C118U | -0.946 |
| G46U A52G C93G | -4.03 |
| A47C A89G C118A G133U | ≤ -4.2 |
| A47C C57A C93U | -1.3 |
| G46U G68C G94C | ≤ -4.2 |
| A47C A122U | -1.45 |
| A47C C93U | -1.69 |
| G46U C93U | -0.878 |
| A47C U82A | -0.366 |
| A47C G94A | -2.54 |
| A47G G50C U82G | ≤ -4.2 |
| G46U C85G | -1.84 |
| A47C C96U A107U | -3.57 |
| A47C C57A G94A U144G | 1.12 |
| A47C A91C G112C G133C C149U | ≤ -4.2 |
| G46U G59C C85A A115U | -4.01 |
| A47G G84U A106G | -2.24 |
| G46C U144C | -1.66 |
| A47C U56A A60G C85U C96U A150U | -0.791 |
| G46C G70A C75G A119C | ≤ -4.2 |
| A47G C63G G92U C93U | -1.34 |
| G46U C69G | -0.758 |
| A47G C54G | -0.785 |
| A47C C54U G84A U109G | -1.84 |

| Variant | polymerase ribozyme fitness (log ratio) |
| --- | --- |
| A47G G58C G112C | -3.97 |
| A47G C93G U144A | -2.58 |
| A47C C93A A106U U109G | ≤ -4.2 |
| A47C A52G U77G G94U C99U | ≤ -4.2 |
| A47G A52G G58A A60G G62C U78G G88C | ≤ -4.2 |
| G46U G88U | ≤ -4.2 |
| A47C U53C C57A C72G A73C U78C C79U C96G C129A A150G | ≤ -4.2 |
| G46U C54U A73U | -3.31 |
| G46U G83U | -2.29 |
| G46U C85U A91C | ≤ -4.2 |
| A47G G92C C114U | -2.53 |
| A47C A60G C93A C95A C96U U139G | ≤ -4.2 |
| A47C A60G C85A | -2.83 |
| A47C G74U A107G A122U | ≤ -4.2 |
| G46U C99A | -3.99 |
| G46C G136A | -0.148 |
| A47C A73U C118A | -3.14 |
| A47G U55A A91G | -2.78 |
| A47G G84C | -2.56 |
| A47G G84U | -1.59 |
| A47C C85G U134G | -4.19 |
| A47C C57A G84U A89C | -1.5 |
| A47C U77G U130G | ≤ -4.2 |
| G46U G83U A91U A106U U148C | ≤ -4.2 |

| Variant | polymerase ribozyme fitness (log ratio) |
| --- | --- |
| G46U C57G G70C U78G C87U G88U G143A U144A | ≤ -4.2 |
| A47G G84U U135A | -2.45 |
| G46U C72A U90G A97G G100A U104A A107G G124C | ≤ -4.2 |
| G46U C87A G88A G143U U148A | ≤ -4.2 |
| G46U G71C C95U A97U A115C G136U | ≤ -4.2 |
| A47G A49U G50C C57U A107C A150C | ≤ -4.2 |
| A47C G81C C99A U134G | -4.06 |
| A47C G50C | -4.1 |
| A47G U55A C63G G84C | ≤ -4.2 |
| A47G G50U G94U G141C | -2.22 |
| A47G C75G A107U U135A U148C | ≤ -4.2 |
| A47C G59A G84U G94U G124A | -3.56 |
| A47G G59C G92U C99A C118G | -3.37 |
| A47C G84A | -0.485 |
| A47C C129G | -4.19 |
| A47G C123U C129G | -3.23 |
| A47C G62U C99G G143U | ≤ -4.2 |
| A47G U53A C57A G84U C99U U134G G141C | ≤ -4.2 |
| A47G C96U G124C | -1.06 |
| A47C A49C G65A G84A A113G G141A | ≤ -4.2 |
| A47G G74A U101G A121C U145C | ≤ -4.2 |
| A47C C87U | -0.109 |
| A47C A49C U144G | -4 |
| A47G U56A U90C G92U U139C | ≤ -4.2 |

| Variant | polymerase ribozyme fitness (log ratio) |
| --- | --- |
| A47C U78A C131U U145A | ≤ -4.2 |
| A47C U102G A115U A142G U148A | ≤ -4.2 |
| A47C U55A A60G | -0.228 |
| A47G A52C A97U | -1.2 |
| A47G C87U C99U | -1.24 |
| A47C G92U C105U C131G | ≤ -4.2 |
| A47C G141A | -1.5 |
| A47C A119G | 0.0948 |
| A47G C87U | 0.257 |
| A47C C69U G80C | ≤ -4.2 |
| A47C G83C G112C | ≤ -4.2 |
| A47G A52G U56A C87G | ≤ -4.2 |
| A47G A52G C87U A98G | -1.52 |
| A47C A52G G68C A91C | ≤ -4.2 |
| A47C G48C G74C U78G G143U | ≤ -4.2 |
| G46C U61G U78A C93A | ≤ -4.2 |
| G46C U61G G81C C114U C116G A147G | ≤ -4.2 |
| A47C G65C G88A C103A | ≤ -4.2 |
| A47G U53A | -0.375 |
| A47C U55G | 0.183 |
| G46U U56A | -0.107 |
| A47C A66U C103G | ≤ -4.2 |
| A47C A60U G80U C93U | ≤ -4.2 |
| A47C A49G | -0.809 |

| Variant | polymerase ribozyme fitness (log ratio) |
| --- | --- |
| A47G G84U C149U | -3.35 |
| A47G C99U | 0.0144 |
| A47C G50U G58U A91G A97U U102A | ≤ -4.2 |
| G46U G59C C96G | -3.41 |
| G46U C51G C54U | ≤ -4.2 |
| A47C A73G | -0.266 |
| A47G C87A G126A | ≤ -4.2 |
| A47G A52C A73G C76G C87G A98G | ≤ -4.2 |
| G46C U55G G58U | -0.983 |
| A47C U134G G136A | -0.632 |
| G46U A52C A89U G94A G133C | ≤ -4.2 |
| A47G A49C A52G G81U G83C U134A | ≤ -4.2 |
| A47C C85A C96U A97U | ≤ -4.2 |
| A47C G83A C99U A120U | -3.03 |
| A47G G50A C85U C99A G124C U127G | ≤ -4.2 |
| A47G A115C | -0.724 |
| A47C C85U | -1.58 |
| A47C C93A A107G G140U | ≤ -4.2 |
| A47C G50C U53A A89G A106U A120C G136A | ≤ -4.2 |
| G46U C103G G124A U151G | ≤ -4.2 |
| A47C U53A G81A U104G | -1.12 |
| A47G A52U G68U C79A C93U C99A G141C A142G G143U | ≤ -4.2 |
| A47C A66C G83C U104C G126C U130C C132G A138C | ≤ -4.2 |
| A47C A49G G83A G140A | ≤ -4.2 |

| Variant | polymerase ribozyme fitness (log ratio) |
| --- | --- |
| A47C U61A G140U U145G | ≤ -4.2 |
| A47G G86U G88C U109G | ≤ -4.2 |
| A47G A91G A97G A98C U134G U139A | ≤ -4.2 |
| G46C G59C G88A | ≤ -4.2 |
| A47C G50A U102C U146A | -2.55 |
| A47C G59C G86A | ≤ -4.2 |
| A47G G81C G92C C95A A142G | -2.95 |
| G46C U56A G84A G133C | -2.71 |
| A47C G48U C76G C96U A113C | ≤ -4.2 |
| A47C G86A C149U | -1.64 |
| A47G C123G U151C | -4.15 |
| A47G C114U | -2.4 |
| A47G C63G G74C A120G | ≤ -4.2 |
| G46U U82C C95U | -0.628 |
| G46C G68A U101G G117U | ≤ -4.2 |
| G46C U109G | -1.81 |
| G46C U102C G136U | ≤ -4.2 |
| A47G G84A G128C | -3.37 |
| A47C C54U G83U A142G | -2.18 |
| A47C C95U | 0.141 |
| A47C G59A C72U G81C A89G G128C U134C | ≤ -4.2 |
| A47C C54U U55A U101C | 0.0498 |
| A47C C51U G58C G70A C96U A106U U151C | ≤ -4.2 |

Source: the RNAGym collection of RNA variant scans (doi:10.1073/pnas.2313332121)
